Measurements as given in patent US7470668B2, “Method of use of specific natriuretic peptide receptor c ligands, transgenic non-human mammals expressing specific natriuretic peptide receptor c antagonists and cells thereof” (Enobia Pharma Inc., priority 2005, dated 2008).

Tests used:
Format in all cases: cell-based
rat GC-A = target: T1, rat GC-A (Rattus norvegicus, UniProt P18910); assay: Intracellular cGMP in GC-A transfected HEK293 cells; details: 10 nM peptide, 15 min
T1 construct: expressed in transfected cells; host or cells: HEK293, transient, CMV-driven pBK plasmid (gift of Dr. A. De Léan)
T1 sequence (P18910 29-1057): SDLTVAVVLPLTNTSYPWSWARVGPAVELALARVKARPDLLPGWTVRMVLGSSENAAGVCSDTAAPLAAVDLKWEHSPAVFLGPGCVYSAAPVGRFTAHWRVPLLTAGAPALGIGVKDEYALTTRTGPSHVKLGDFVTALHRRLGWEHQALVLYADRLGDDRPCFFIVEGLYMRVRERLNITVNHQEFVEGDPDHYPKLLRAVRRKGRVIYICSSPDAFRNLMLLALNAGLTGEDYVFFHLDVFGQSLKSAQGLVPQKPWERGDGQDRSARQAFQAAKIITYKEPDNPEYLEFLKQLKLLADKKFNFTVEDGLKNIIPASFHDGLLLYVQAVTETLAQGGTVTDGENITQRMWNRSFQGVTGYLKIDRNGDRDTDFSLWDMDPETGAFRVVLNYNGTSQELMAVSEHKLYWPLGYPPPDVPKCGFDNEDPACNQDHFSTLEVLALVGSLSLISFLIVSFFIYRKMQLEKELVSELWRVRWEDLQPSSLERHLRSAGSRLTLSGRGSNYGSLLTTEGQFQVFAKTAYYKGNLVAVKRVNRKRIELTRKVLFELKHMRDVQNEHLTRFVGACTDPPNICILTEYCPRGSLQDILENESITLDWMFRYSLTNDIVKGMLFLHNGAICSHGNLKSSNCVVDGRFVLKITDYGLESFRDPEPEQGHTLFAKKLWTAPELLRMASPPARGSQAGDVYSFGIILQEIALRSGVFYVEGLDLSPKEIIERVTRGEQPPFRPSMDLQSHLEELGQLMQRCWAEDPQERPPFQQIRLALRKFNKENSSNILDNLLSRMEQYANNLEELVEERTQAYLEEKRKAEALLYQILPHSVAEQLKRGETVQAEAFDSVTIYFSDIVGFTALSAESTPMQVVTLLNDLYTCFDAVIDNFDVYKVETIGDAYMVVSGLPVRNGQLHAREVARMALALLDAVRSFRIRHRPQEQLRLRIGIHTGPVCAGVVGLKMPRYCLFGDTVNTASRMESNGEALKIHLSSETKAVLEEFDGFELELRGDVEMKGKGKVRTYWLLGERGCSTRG

human GC-B = target: T2, human GC-B (Homo sapiens, UniProt P20594); assay: Intracellular cGMP in GC-B transfected HEK293 cells; details: 10 nM peptide, 15 min
T2 construct: expressed in transfected cells; host or cells: HEK293, transient, pCDNA1.1 (CMV promoter)
T2 sequence (P20594 23-1047): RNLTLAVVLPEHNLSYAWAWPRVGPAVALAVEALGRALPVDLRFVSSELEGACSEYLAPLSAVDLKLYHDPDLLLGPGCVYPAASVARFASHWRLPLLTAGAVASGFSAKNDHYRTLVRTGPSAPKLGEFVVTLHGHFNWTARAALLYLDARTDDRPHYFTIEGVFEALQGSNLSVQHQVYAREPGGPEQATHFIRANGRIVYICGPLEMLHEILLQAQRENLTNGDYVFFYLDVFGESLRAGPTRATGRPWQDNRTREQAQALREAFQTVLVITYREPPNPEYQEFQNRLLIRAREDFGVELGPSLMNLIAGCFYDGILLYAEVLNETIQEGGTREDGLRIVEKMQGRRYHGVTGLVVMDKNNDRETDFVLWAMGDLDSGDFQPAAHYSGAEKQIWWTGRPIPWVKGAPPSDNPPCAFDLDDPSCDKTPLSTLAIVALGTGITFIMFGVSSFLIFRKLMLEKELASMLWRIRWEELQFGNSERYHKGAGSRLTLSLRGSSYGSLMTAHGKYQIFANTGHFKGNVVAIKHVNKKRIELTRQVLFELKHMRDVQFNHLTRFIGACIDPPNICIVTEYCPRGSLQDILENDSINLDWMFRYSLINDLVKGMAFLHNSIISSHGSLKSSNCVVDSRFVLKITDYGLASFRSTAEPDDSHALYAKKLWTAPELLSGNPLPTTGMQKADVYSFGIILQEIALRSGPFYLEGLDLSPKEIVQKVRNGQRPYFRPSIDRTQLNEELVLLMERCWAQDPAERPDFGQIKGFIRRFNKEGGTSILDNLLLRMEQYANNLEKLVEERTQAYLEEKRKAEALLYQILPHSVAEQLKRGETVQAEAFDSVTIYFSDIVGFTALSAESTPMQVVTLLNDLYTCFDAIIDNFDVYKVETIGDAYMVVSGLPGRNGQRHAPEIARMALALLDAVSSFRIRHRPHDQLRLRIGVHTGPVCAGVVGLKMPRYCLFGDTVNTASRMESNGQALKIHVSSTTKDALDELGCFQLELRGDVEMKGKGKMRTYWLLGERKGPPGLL

NPR-C = target: T3, NPR-C (Homo sapiens, UniProt P17342); assay: ANP-stimulated cGMP in NPR-C overexpressing HEK293 cells; details: NPR-C-expressing cells, 0.1 nM ANP plus 10 nM peptide
T3 construct: expressed in transfected cells; host or cells: HEK293, transient, pCDNA1.1 (CMV promoter)
T3 sequence (P17342 27-541): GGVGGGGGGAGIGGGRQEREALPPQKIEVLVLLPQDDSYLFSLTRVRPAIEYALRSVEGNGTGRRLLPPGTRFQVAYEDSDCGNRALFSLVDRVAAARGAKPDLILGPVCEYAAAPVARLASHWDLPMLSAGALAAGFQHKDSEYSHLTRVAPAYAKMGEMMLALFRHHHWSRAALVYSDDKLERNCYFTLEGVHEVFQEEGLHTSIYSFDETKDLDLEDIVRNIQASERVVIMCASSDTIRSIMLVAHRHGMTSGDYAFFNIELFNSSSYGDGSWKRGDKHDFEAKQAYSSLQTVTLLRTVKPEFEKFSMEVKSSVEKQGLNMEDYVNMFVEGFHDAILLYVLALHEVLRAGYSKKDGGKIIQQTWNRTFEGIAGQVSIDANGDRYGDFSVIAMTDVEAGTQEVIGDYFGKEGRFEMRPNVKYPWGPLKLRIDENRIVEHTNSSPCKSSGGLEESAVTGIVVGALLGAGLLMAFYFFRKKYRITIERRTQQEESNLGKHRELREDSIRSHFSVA
Excerpt: The expression plasmid for rat GC-A containing the entire coding sequence cloned between the NheI-KpnI sites of CMV-driven pBK plasmid (Stratagene, La Jolla, Calif.) was kindly provided by Dr. A. De Léan (Département de Pharmacologie, Université de Montréal). The human NPR-C and GC-B coding sequences were amplified by RT-PCR from human embryonic kidney polyA RNA (Clontech, Palo Alto, Calif.) with the following primer pairs: NPR-C-5′-[…]-3′(forward) (SEQ ID NO: 74) and 5′-[…]-3′ (SEQ ID NO: 75) (reverse); GC-B-5′-[…]-3′ (SEQ ID NO: 76) (forward) and 5′-[…]-3′ (SEQ ID NO: 77) (reverse). The resulting PCR products were then cloned downstream of the CMV-promoter into the pCDNA1.1 plasmid (Invitrogen, Burlington, ON, Canada). All constructs were validated by DNA sequencing.

B1: rhOstn[27-133]: N-terminal 6 histidine-tagged recombinant human Ostn amino acids 27-133 produced in E.coli, SEQ ID NO: 57 (protein)
chain: SVDVTTTEAFDSGVIDVQSTPTVREEKSATDLTAKLLLLDELVSLENDVIETKKKRSFSGFGSPLDRLSAGSVDHKGKQRKVVDHPKRRFGIPMDRIGRNRLSNSRG
modifications: N-terminal His6 tag; recombinant mature osteocrin
Rat GC-A
  intracellular cGMP response via GC-A: failed to activate
Human GC-B
  intracellular cGMP response via GC-B: failed to activate
NPR-C
  increase in cGMP levels (restored ANP signalling): 8 fold
